According to the supplement of paper PMC6755084:

Tested on: F1*sub RNA substrate (template-directed ligation)
Test: fraction ligated after 30 min (ligated reads / total reads); higher = more ligase activity; sequences stand for … in GAGACCGCAACTGAAAAGTTGT…AGTTCTGCACGTAGAAGCAAAAGGC
Conditions: 42 °C
Protocol: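 Chip-synthesised pool of F1* ligase ribozyme variants (all single and double substitutions, single, double and triple deletions in the catalytic core and GAA bulge, plus designed variants) was transcribed with T7 and reacted as a pool with excess substrate F1*sub for 30 min at 42 C in 50 mM EPPS pH 8.5, 25 mM MgCl2. Ligated and unligated bands were separated by PAGE, barcoded by RT and deep sequenced; fraction ligated = ligated reads / total reads per variant, relative activity = FL / FL of wild type (0.826). Sequences are the DNA template of the ribozyme.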

Sequence | fraction ligated
TACACTTGTCGTAAGACATTTGGATGGTTGA [3d711] | 0.113
TACACTTGTCGTAAGACATTTGGTGGGTTGA [3d709] | 0.0505
TACACTTGTCGTAAGACCTTGGATGGGTTGA [3d700] | 0.222
TACACTTGTCGTAAGACCTTTGATGGGTTGA [3d701] | 0.0781
TACACTTGTCGTAAGACCTTTGGAGGGTTGA [3d703] | 0.0299
TACACTTGTCGTAAGACCTTTGGATGGGTTA [3d705] | 0.136
TACACTTGTCGTAAGACCTTTGGATGGGTTG [3d706] | 0.659
TACACTTGTCGTAAGACCTTTGGATGGGTTGA [2d60] | 0.625
TACACTTGTCGTAAGACCTTTGGATGGTTGA [3d704] | 0.358
TACACTTGTCGTAAGACCTTTGGTGGGTTGA [3d702] | 0.138
TACACTTGTCGTAAGACTTTGGATGGGTTGA [3d682] | 0.409
TACACTTGTCGTAAGCACTTGGATGGGTTGA [3d685] | 0.0451
TACACTTGTCGTAAGCACTTTGATGGGTTGA [3d686] | 0.0278
TACACTTGTCGTAAGCACTTTGGAGGGTTGA [3d688] | 0.0515
TACACTTGTCGTAAGCACTTTGGATGGGTTA [3d690] | 0.0198
TACACTTGTCGTAAGCACTTTGGATGGGTTG [3d691] | 0.151
TACACTTGTCGTAAGCACTTTGGATGGGTTGA [2d58] | 0.183
TACACTTGTCGTAAGCACTTTGGATGGTTGA [3d689] | 0.101
TACACTTGTCGTAAGCACTTTGGTGGGTTGA [3d687] | 0.114
TACACTTGTCGTAAGCATTTGGATGGGTTGA [3d684] | 0.453
TACACTTGTCGTAAGCCTTTGGATGGGTTGA [3d683] | 0.0763
TACACTTGTCGTAGAACTTTGGATGGGTTGA [3d662] | 0.145

Sequence | fraction ligated
TACACTTGTCGTAGACACTTGGATGGGTTGA [3d665] | 0.101
TACACTTGTCGTAGACACTTTGATGGGTTGA [3d666] | 0.0743
TACACTTGTCGTAGACACTTTGGAGGGTTGA [3d668] | 0.146
TACACTTGTCGTAGACACTTTGGATGGGTTA [3d670] | 0.0913
TACACTTGTCGTAGACACTTTGGATGGGTTG [3d671] | 0.514
TACACTTGTCGTAGACACTTTGGATGGGTTGA [2d56] | 0.617
TACACTTGTCGTAGACACTTTGGATGGTTGA [3d669] | 0.524
TACACTTGTCGTAGACACTTTGGTGGGTTGA [3d667] | 0.0835
TACACTTGTCGTAGACATTTGGATGGGTTGA [3d664] | 0.464
TACACTTGTCGTAGACCTTTGGATGGGTTGA [3d663] | 0.173
TACACTTGTCGTAGCACTTTGGATGGGTTGA [3d661] | 0.0075
TACACTTGTCGTGACACTTTGGATGGGTTGA [3d659] | 0.0318
TACACTTGTCTAAACACTTTGGATGGGTTGA [3d634] | 0.177
TACACTTGTCTAAGAACTTTGGATGGGTTGA [3d636] | 0.116
TACACTTGTCTAAGACACTTGGATGGGTTGA [3d639] | 0.087
TACACTTGTCTAAGACACTTTGATGGGTTGA [3d640] | 0.0986
TACACTTGTCTAAGACACTTTGGAGGGTTGA [3d642] | 0.115
TACACTTGTCTAAGACACTTTGGATGGGTTA [3d644] | 0.131
TACACTTGTCTAAGACACTTTGGATGGGTTG [3d645] | 0.595
TACACTTGTCTAAGACACTTTGGATGGGTTGA [2d54] | 0.609
TACACTTGTCTAAGACACTTTGGATGGTTGA [3d643] | 0.449
TACACTTGTCTAAGACACTTTGGTGGGTTGA [3d641] | 0.124

Sequence | fraction ligated
TACACTTGTCTAAGACATTTGGATGGGTTGA [3d638] | 0.457
TACACTTGTCTAAGACCTTTGGATGGGTTGA [3d637] | 0.0809
TACACTTGTCTAAGCACTTTGGATGGGTTGA [3d635] | 0.142
TACACTTGTCTAGACACTTTGGATGGGTTGA [3d633] | 0.195
TACACTTGTGAAGACACTTTGGATGGGTTGA [3d618] | 0.345
TACACTTGTGTAAACACTTTGGATGGGTTGA [3d620] | 0.0848
TACACTTGTGTAAGAACTTTGGATGGGTTGA [3d622] | 0.00557
TACACTTGTGTAAGACACTTGGATGGGTTGA [3d625] | 0.0347
TACACTTGTGTAAGACACTTTGATGGGTTGA [3d626] | 0.0413
TACACTTGTGTAAGACACTTTGGAGGGTTGA [3d628] | 0.0881
TACACTTGTGTAAGACACTTTGGATGGGTTA [3d630] | 0.0333
TACACTTGTGTAAGACACTTTGGATGGGTTG [3d631] | 0.145
TACACTTGTGTAAGACACTTTGGATGGGTTGA [2d53] | 0.243
TACACTTGTGTAAGACACTTTGGATGGTTGA [3d629] | 0.141
TACACTTGTGTAAGACACTTTGGTGGGTTGA [3d627] | 0.134
TACACTTGTGTAAGACATTTGGATGGGTTGA [3d624] | 0.392
TACACTTGTGTAAGACCTTTGGATGGGTTGA [3d623] | 0.0441
TACACTTGTGTAAGCACTTTGGATGGGTTGA [3d621] | 0.101
TACACTTGTGTAGACACTTTGGATGGGTTGA [3d619] | 0.0703
TACACTTGTTAAGACACTTTGGATGGGTTGA [3d617] | 0.244
TACACTTTCGAAGACACTTTGGATGGGTTGA [3d587] | 0.0357
TACACTTTCGTAAACACTTTGGATGGGTTGA [3d589] | 0.0248

Sequence | fraction ligated
TACACTTTCGTAAGAACTTTGGATGGGTTGA [3d591] | 0.0829
TACACTTTCGTAAGACACTTGGATGGGTTGA [3d594] | 0.0252
TACACTTTCGTAAGACACTTTGATGGGTTGA [3d595] | 0.0271
TACACTTTCGTAAGACACTTTGGAGGGTTGA [3d597] | 0.0439
TACACTTTCGTAAGACACTTTGGATGGGTTA [3d599] | 0.00822
TACACTTTCGTAAGACACTTTGGATGGGTTG [3d600] | 0.0259
TACACTTTCGTAAGACACTTTGGATGGGTTGA [2d51] | 0.0483
TACACTTTCGTAAGACACTTTGGATGGTTGA [3d598] | 0.0486
TACACTTTCGTAAGACACTTTGGTGGGTTGA [3d596] | 0.0156
TACACTTTCGTAAGACATTTGGATGGGTTGA [3d593] | 0.292
TACACTTTCGTAAGACCTTTGGATGGGTTGA [3d592] | 0.0278
TACACTTTCGTAAGCACTTTGGATGGGTTGA [3d590] | 0.0355
TACACTTTCGTAGACACTTTGGATGGGTTGA [3d588] | 0.0222
TACACTTTCTAAGACACTTTGGATGGGTTGA [3d586] | 0.0445
TACACTTTGTAAGACACTTTGGATGGGTTGA [3d585] | 0.0938
TACATGTCGTAAGACACTTTGGATGGGTTGA [3d547] | 0.16
TACATTGCGTAAGACACTTTGGATGGGTTGA [3d549] | 0.0211
TACATTGTCGAAGACACTTTGGATGGGTTGA [3d552] | 0.0671
TACATTGTCGTAAACACTTTGGATGGGTTGA [3d554] | 0.0244
TACATTGTCGTAAGAACTTTGGATGGGTTGA [3d556] | 0.0064
TACATTGTCGTAAGACACTTGGATGGGTTGA [3d559] | 0.19
TACATTGTCGTAAGACACTTTGATGGGTTGA [3d560] | 0.232

Sequence | fraction ligated
TACATTGTCGTAAGACACTTTGGAGGGTTGA [3d562] | 0.16
TACATTGTCGTAAGACACTTTGGATGGGTTA [3d564] | 0.0607
TACATTGTCGTAAGACACTTTGGATGGGTTG [3d565] | 0.163
TACATTGTCGTAAGACACTTTGGATGGGTTGA [2d49] | 0.223
TACATTGTCGTAAGACACTTTGGATGGTTGA [3d563] | 0.303
TACATTGTCGTAAGACACTTTGGTGGGTTGA [3d561] | 0.144
TACATTGTCGTAAGACATTTGGATGGGTTGA [3d558] | 0.298
TACATTGTCGTAAGACCTTTGGATGGGTTGA [3d557] | 0.214
TACATTGTCGTAAGCACTTTGGATGGGTTGA [3d555] | 0.041
TACATTGTCGTAGACACTTTGGATGGGTTGA [3d553] | 0.0879
TACATTGTCTAAGACACTTTGGATGGGTTGA [3d551] | 0.0666
TACATTGTGTAAGACACTTTGGATGGGTTGA [3d550] | 0.0317
TACATTTCGTAAGACACTTTGGATGGGTTGA [3d548] | 0.0271
TACCTGTCGTAAGACACTTTGGATGGGTTGA [3d528] | 0.655
TACCTTGCGTAAGACACTTTGGATGGGTTGA [3d530] | 0.392
TACCTTGTCGAAGACACTTTGGATGGGTTGA [3d533] | 0.676
TACCTTGTCGTAAACACTTTGGATGGGTTGA [3d535] | 0.418
TACCTTGTCGTAAGAACTTTGGATGGGTTGA [3d537] | 0.253
TACCTTGTCGTAAGACACTTGGATGGGTTGA [3d540] | 0.746
TACCTTGTCGTAAGACACTTTGATGGGTTGA [3d541] | 0.304
TACCTTGTCGTAAGACACTTTGGAGGGTTGA [3d543] | 0.24
